Molecular target: T1, SARS-CoV-2 nonstructural protein 10 (nsp10) (SARS-CoV-2, UniProt P0DTD1 4254-4392)
T1 construct: also called 2H15N-nsp10; apo-nsp10
Assay: MST
Settings: both partners purified

B1: nsp14ExoN, nsp14 without the methyltransferase domain but retaining the exonuclease activity (domain or fragment)
chain: AENVTGLFKDCSKVITGLHPTQAPTHLSVDTKFKTEGLCVDIPGIPKDMTYRRLISMMGFKMNYQVNGYPNMFITREEAIRHVRAWIGFDVEGCHATREAVGTNLPLQLGFSTGVNLVAVPTGYVDTPNNTDFSRVSAKPPPGDQFKHLIPLMYKGLPWNVVRIKIVQMLSDTLKNLSDRVVFVLWAHGFELTSMKYFVKIGPERTCCLCDRRATCFSTASDTYACWHHSIGFDYVYNPFMIDVQQWGFTGNLQSNHDLYCQVHGNAHVASCDAIMTRCLAVHECFVKRVDWTIE
- Kd: 4.55 ± 2.68 µM

Reference: paper PMC11194070, “Despite the odds: formation of the SARS-CoV-2 methylation complex” (Nucleic Acids Research, 2024)
